Reference: the nanobody polyreactivity screen of Harvey et al. (2022)

experiment: yeast display, Sf9 membrane polyspecificity reagent, FACS + sequencing; frameworks hold sequencing errors
Procedure, shortened: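 Synthetic nanobody libraries on Saccharomyces cerevisiae BJ5465 were galactose-induced for 36–48 hours, stained 1 hour at 4 °C with 10% biotinylated, detergent-solubilized Sf9 membrane reagent and enriched on streptavidin microbeads. FACS then separated cells into low and high (top ~1%) gates by anti-HA (expression) and streptavidin (reagent binding) fluorescence. Genes were colony-PCR amplified, MiSeq 2 × 250 sequenced and CDR-length filtered. A clone's polyreactivity label is that of its gate of origin.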

**Q.** For “QVQLVESVGGLVQAGGSLRLSCAASGRTFSEYAMGWYRQAPGEERELVAAITSTGGITYYADSVKGRFTISRDNAKNTVYLQMNSLKPEDTAVYYCAARAYTWGPAGQVDKYYYWGQGTQVTVSS”, which “polyreactivity (PSR sort gate)” value is on record?
**A.** high polyreactivity

**Q.** Which “polyreactivity (PSR sort gate)” value does the source give for “QVQLVESVGGLVQAGGSLRLSCAASGRTFSRFAMGWYRKAPGKERELVAAISYSGGRTYYADSVKGRFTISRDNAKNTVYLQMNSLKPEDTAVYYCAASWPGDTVDYDYWGQGTQVTVSS” here?
**A.** high polyreactivity

**Q.** Which “polyreactivity (PSR sort gate)” value does the source give for “QVQLVESVGGLVQAGGSLRLSCAASGRTFYHYAIGWYIQAPGQERELVAAITYRGGNTYYADSVKGRFTISRDNAKNTVYLQMNRLKPEDTAVYYCAKQGVRRHYGYDYWGQGTQVTVSS” here?
**A.** high polyreactivity

**Q.** Which “polyreactivity (PSR sort gate)” value does the source give for “QVQLVESVGGLVQAGGSLRLSCAASGRTFYQYALGWYRQAPGKERELVAVINGGGSTNYADSVKGRFTISRDNAKNTVYLQMNSLKPEDTAVYYCNADGRRGRYDYWGQGTQVTVSS” here?
**A.** low polyreactivity

**Q.** With “QVQLVESVGGLVQAGGSLRLSCAASGRTFYYYTMGWYRQAPGKEWELVAAISSTGNTYYADSVKGRFTISRDNAKNTVYLHMISLQPEDTAVYYCAALGYVKLLAQAYEYWGHGTQVTVSS” as the sequence, how does the “polyreactivity (PSR sort gate)” value read?
**A.** high polyreactivity

**Q.** Which “polyreactivity (PSR sort gate)” value does the source give for “QVQLVESVGGLVQAGGSLRLSCAASGRTLYPNAMGWYRQAPGKERELVASISWSGVSTYYADSVKGRFTISRDNAKNTVYLQMNSLKPEDTAVYYCNAVGYWSDGLVWYEGDYWGQGTQVTVSS” here?
**A.** low polyreactivity

**Q.** With “QVQLVESVGGLVQAGGSLRLSCAASGSIFAGYAMGWYRQAPGKERELVAAISRRGGRTYYADSVKGRFTISRDIAKNTVYLQMNSLKPEVTAVYYCNRDYRRSTGSPEYDYWGQGTQVTVSS” as the sequence, how does the “polyreactivity (PSR sort gate)” value read?
**A.** high polyreactivity

**Q.** Which “polyreactivity (PSR sort gate)” value does the source give for “QVQLVESVGGLVQAGGSLRLSCAASGSIFASNSMGWYRQETGKEREFVAAITWRTDRTYYADSVKGRFTISRDNAKNTLYFQMNSLKPEDTAVYYFAADTWFYRFYYWGQGTQVTVSS” here?
**A.** high polyreactivity

**Q.** With “QVQLVESVGGLVQAGGSLRLSCAASGSIFEQNAMGWYRQAPGKERELVAGINEGGGSTYYADSVKGRFTISRDNAKNTVYLQMNSLKPEDTAVYYCAAEYYDDFSYGWYDYWGQGTQVTVSS” as the sequence, how does the “polyreactivity (PSR sort gate)” value read?
**A.** high polyreactivity

**Q.** Which “polyreactivity (PSR sort gate)” value does the source give for “QVQLVESVGGLVQAGGSLRLSCAASGSIFFSYAMGWYRQAPGKERELVAGINWSGGSTYADSVKGRFTISRDNAKNTVYLQMNSLKPEDTAVYYCAAKYYSERSRYHYWGQGTQVTVSS” here?
**A.** low polyreactivity

**Q.** Which “polyreactivity (PSR sort gate)” value does the source give for “QVQLVESVGGLVQAGGSLRLSCAASGSIFGDNAMGWYRQAPGKERELVAAITWRGGSTYYADSVKGRFTISRDNAKNTVYLQMNSLKPEDTAVYYCATDSRSHRDYWGQGTQVTVSS” here?
**A.** low polyreactivity

**Q.** Which “polyreactivity (PSR sort gate)” value does the source give for “QVQLVESVGGLVQAGGSLRLSCAASGSIFIANAIGWYRQAPGKERELVAAISWSGGRTYYADSVKGRFTISRDNAKNTVYLQMNSLKPEDTAVYYCAAVYGAYDSGRFLSFGNFDYWGQGTQVTVSS” here?
**A.** high polyreactivity

**Q.** With “QVQLVESVGGLVQAGGSLRLSCAASGSIFLQNAMGGYRQAPGKERELVAAITNGGSTNYADSVKGRFTISRDNAKNTVYLQMNSLKPEDTAVYYCAAYPLYTGSYDRGGYWGQGTLVTVSS” as the sequence, how does the “polyreactivity (PSR sort gate)” value read?
**A.** low polyreactivity

**Q.** With “QVQLVESVGGLVQAGGSLRLSCAASGSIFRRYTMGWYRQAPGKERELFAAISRVGNTNYAHSVKGRFTISRDNAKNTVYLQMNSLKPEATAVYYCAARAIGYRYTPGLNYWGQGTQVTVSS” as the sequence, how does the “polyreactivity (PSR sort gate)” value read?
**A.** high polyreactivity

**Q.** For “QVQLVESVGGLVQAGGSLRLSCAASGSIFWSNAMGWYRQAPGKERELVARISTSGGRTYYADSVKGRFTISRDNAKNTVYLQMNSLKPEDTAVYYCNAGKLYYRWLYDYWGQGTQVTVSS”, which “polyreactivity (PSR sort gate)” value is on record?
**A.** high polyreactivity

**Q.** For “QVQLVESVGGLVQAGGSLRLSCAASGSIFYPNAMGLYRQAPGKERELVAAISSSGGTNYADSVKGRFTISRDNAKNTVYLQMNSLKPEDTAVYYCNARDKVRYRYSRMDYWGQGTQVTVSS”, which “polyreactivity (PSR sort gate)” value is on record?
**A.** low polyreactivity

**Q.** With “QVQLVESVGGLVQAGGSLRLSCAASGSIIFTNVMGWYRQAPGKDREFVAAITGGGGSTYYADSVKGRFTISRDNAKNTVYLQMNSLKPEDTAVYYCATKAKPRSGYNYWGQGTQVTVSS” as the sequence, how does the “polyreactivity (PSR sort gate)” value read?
**A.** low polyreactivity

**Q.** Which “polyreactivity (PSR sort gate)” value does the source give for “QVQLVESVGGLVQAGGSLRLSCAASGSIIKVYAMGWYRQAPGKERELVAGIRGSGGRTYYADSVKGRFTISRDNAKNTVYLQMNSLKPEDTAVYYCNARNPGRLGRFDYWGQGTQVTVSS” here?
**A.** low polyreactivity

**Q.** For “QVQLVESVGGLVQAGGSLRLSCAASGSNFSKKTMGGSRQAHGKERELVAAITTRGSSTYYADSVKGRFTISRDNAKNTVYLQMNSLKPVDTAVYYCNAPYRVTGGRYRWYDYWGQGTQVTVSS”, which “polyreactivity (PSR sort gate)” value is on record?
**A.** high polyreactivity

**Q.** Which “polyreactivity (PSR sort gate)” value does the source give for “QVQLVESVGGLVQAGGSLRLSCAASGSSIPYYAMGWYRQAPGKERELVARITWRSTSTYADSVKGRFTISRDNAKNTVYLQMNSLKPEDTAVYYCAVRLLSTYIIEYEHWGQGTQVTLSS” here?
**A.** low polyreactivity

**Q.** For “QVQLVESVGGLVQAGGSLRLSCAASGSTFAYNDMGWYRQAPGKERELVPDIRSGGNTNYADSVKGRFTISRDNAKNTVYLQMNSLKPEDTAVYYCATDGYRIDVYHPDYRYDYWGQGTQVTVSS”, which “polyreactivity (PSR sort gate)” value is on record?
**A.** low polyreactivity

**Q.** For “QVQLVESVGGLVQAGGSLRLSCAASGSTFEDNAMGWYRQAPGKERELVAAITTGGGSTYYADSVKGRFTISRDNAKNTVYLQINSLKPEDTEVYYCNAEHGWFGLLFIATANEYDYLGQGTQVTVSS”, which “polyreactivity (PSR sort gate)” value is on record?
**A.** low polyreactivity

**Q.** For “QVQLVESVGGLVQAGGSLRLSCAASGSTFGINAMGWYRQAPGKERELVASITRRGGSTYYADSVKGRFTISRDNAKNTVYLQMNSLKPEDTAVYYCNKTYRYGTPLYDYWGQGTQVTVSS”, which “polyreactivity (PSR sort gate)” value is on record?
**A.** high polyreactivity

**Q.** For “QVQLVESVGGLVQAGGSLRLSCAASGSTFKYYAMGWYRPAPGKERELVAAITYSGGRTYYADSVKGRFTISRDNAKNTVYLQMNSLNPEDTAGYYCAARRGREDDYWGQGTQVTVSS”, which “polyreactivity (PSR sort gate)” value is on record?
**A.** low polyreactivity

**Q.** For “QVQLVESVGGLVQAGGSLRLSCAASGSTFPFYAMGWYRQAPGKERELVAAITSGGSTYADSVKGRFTISRDNAKNTVYLQMNSLKPEDTAVYYCAASWPRWWRFGYWGQGTQVTVSS”, which “polyreactivity (PSR sort gate)” value is on record?
**A.** low polyreactivity

**Q.** Which “polyreactivity (PSR sort gate)” value does the source give for “QVQLVESVGGLVQAGGSLRLSCAASGSTFTYNDLGWYRQAPGKERELVARITFSSGRTYYADSVKGRFTISRDNAKNTVYLQMNSLTPEDTAVYDCARQWYWPPGYYIGQGYEYWGQGTQVTVSS” here?
**A.** low polyreactivity

**Q.** Which “polyreactivity (PSR sort gate)” value does the source give for “QVQLVESVGGLVQAGGSLRLSCAASGSTIQGNSMGWYRQAHGKERELVAAISRSGGSTYADSVKGRFTISRDNAKNTVYLEMHSLKPEDTAVFYCAAYSGVGYLWFDYWGQGTQVTVSS” here?
**A.** low polyreactivity

**Q.** With “QVQLVESVGGLVQAGGSLRLSCAASGSTLSAYVMGWYRQAPGKERELVAAITRGGNTYYADSVKGRFTISRDNAKNTVYLQMNSLKPEDTAVYYCAARTYVSYCYYTLNYWGQGTQVTVSS” as the sequence, how does the “polyreactivity (PSR sort gate)” value read?
**A.** high polyreactivity

**Q.** With “QVQLVESVGGLVQAGGSLRLSCAASGYNFWSNTMGWYRQAPGKERELVAAISQSTASTYYADSVKGRFTISRDNAKNTVYLQMNSLKPEDTAVYYCAAYYNFGDYEYDYWGQGTQVTVSS” as the sequence, how does the “polyreactivity (PSR sort gate)” value read?
**A.** low polyreactivity

**Q.** For “QVQLVESVGGLVQAGGSLRLSCADSGLTFVDYAMGWYRQAPGKERELVAAITSSGGSITYYADSVKGRFTISRDNAKNTVYLQMKSLKPEDTAVYYCNADYGIYTDSFRGPDYESRGQGTQVTVSS”, which “polyreactivity (PSR sort gate)” value is on record?
**A.** low polyreactivity

**Q.** With “QVQLVESVGGLVQAGGSLRLSCDASGRIFVKYAMGGSRQAPGKERELVASITSGGRTNYADSVKGRFTISRDNAKNTVYLQMNSLKPEDTAVYYCAADARQSRYNYWGQGTQVTVSS” as the sequence, how does the “polyreactivity (PSR sort gate)” value read?
**A.** high polyreactivity

**Q.** With “QVQLVESVGGLVQAGGSLRLSCSASGLIFYDYDMGWYRQAPGKERELVAAISNDASTYYAHSVKGRFTISRDNAKNTVYFQMNSLKTEDTAVYFCAAEPYVFGLSSKPFWYNYWGQGTQVTVSS” as the sequence, how does the “polyreactivity (PSR sort gate)” value read?
**A.** low polyreactivity

**Q.** Which “polyreactivity (PSR sort gate)” value does the source give for “QVQLVESVGGLVQAGGSLRLSSASSGRIFWDYAIGCYRQAPGKERELVASISTDGSTYYADSVKGRFTISRDNAKNTVYLQMNSLKPEDTEVYFCAVRGLYRYIRWGYPSYYYWGLGTQVTVSS” here?
**A.** low polyreactivity

**Q.** For “QVQLVESVGGLVQAGGSLRLTCAASVFTFGYYAMGWYRQAPGKERELVAAITWSGGRTYYADSVKGRFTISRDNAKYTVYLQMNSLKPEDTAVYYCAVETLWQGSEYWGQGTQVTVSS”, which “polyreactivity (PSR sort gate)” value is on record?
**A.** low polyreactivity

**Q.** For “QVQLVESVGGLVQAGGSLSLSCAASGRMLVRNAMGWYRQAAGKERELVAVIRWSGGRTSYADSVKGRFTISRDNAKNTVYLQMNSLKPEDTAVYYCNKGGSYPTSNYKSYWVGVDYCGQGTQVTVSS”, which “polyreactivity (PSR sort gate)” value is on record?
**A.** low polyreactivity

**Q.** Which “polyreactivity (PSR sort gate)” value does the source give for “QVQLVESVGGLVQAGGSLSLSCAASGSIFIYNARGWYRQAPGKERELVATISSGGSTTYADSVKGRFTISRDNAKNTVYLQMNSLKPEDTAVYYCATYDPPDQYFYLGYYYWGANDYWGQGTQVTVSS” here?
**A.** low polyreactivity

**Q.** With “QVQLVESVGGLVQAGGSLSLTCAASARTLNIYAMGWNRAAPGKERELVAAISKRGGTTYYADSVKGRFTISRDNAKNTVYLQMNSLKPEDTAVYYCNAAVRGVGELDYWGQGTQVTVSS” as the sequence, how does the “polyreactivity (PSR sort gate)” value read?
**A.** high polyreactivity

**Q.** With “QVQLVESVGGLVQAGVSLRLSCAASGITFYGYAMGWYRQAPGKERELVATSTSGGSTYYADSVKGRFTISRDNAKNTVYLQMNSLKPVDTAVYYCAASRWYRRTRYGYWGQGTQLTVSS” as the sequence, how does the “polyreactivity (PSR sort gate)” value read?
**A.** high polyreactivity

**Q.** With “QVQLVESVGGLVQEGGSLRLISAASGSIFGSNAMGWYRQAPGKEREMFAAISKSGGSTYYADSVKGRFTISRDNAKNTVYLQMNSLKPEDTAVFYCNPRWWVVTFYGRYEGDYWGQGTQVTVSS” as the sequence, how does the “polyreactivity (PSR sort gate)” value read?
**A.** low polyreactivity

**Q.** For “QVQLVESVGGLVQEGGSLRLRCAASGSTFNKYTMGWYRQAPGKERELVAAISLRGGSTYYADSVKGRFTISRDNAKNTVYLQMNSLKPEDTAVYYCNADATHDWLRVDTYEYWGHGTQVTVSS”, which “polyreactivity (PSR sort gate)” value is on record?
**A.** low polyreactivity
